Assay results as given in publication PMC3324464, “The GPI Anchor Signal Sequence Dictates the Folding and Functionality of the Als5 Adhesin from Candida albicans” (PLoS ONE, 2012).
“Also recorded” adds a separate entry of the source.

Experiments:
[1] = test system: Candida SC5314 cells; assay: Competition of anti-Als5 antibody binding to Candida cell surface, flow cytometry; assay type: cell-based, Candida albicans; conditions: TRITC secondary antibody, 37 °C 1 hour, mean of 3 independent experiments in duplicates
Protocol: The production of the antibodies was outsourced (Merck India Ltd.). Polyclonal antibodies were generated in rabbit against the protein band obtained after an SDS-PAGE run of GST- Als5-SS. The antibodies detected both GST-Als5 as well as GST-Als5-SS on a Western Blot. The specificity of the generated anti-Als5 antibody was checked by detecting its ability to bind to the Candida cell surface adhesins. For staining, Candida SC5314 cells (a kind gift from Prof. Rajendra Prasad, SLS, JNU) were grown in synthetic dextrose minimal medium at 30°C to an OD600nm of 0.5. 500 µl of the cells were taken in an eppendorf and washed with PBS. […] The cells were then washed thrice with PBS, and the presence of the TRITC labelled secondary Ab on the Candida cells was detected using flow cytometry. To rule out the non-specific interaction of the secondary Ab with the proteins on Candida cell surface, unstained cells were also detected by flow cytometer. […]
In order to confirm the identity of the Als5 protein, we also designed the following experiment. […] Using a TRITC labelled secondary antibody, we detected the bound primary antibodies on the Candida cells by flow cytometry. […]
Figure 2 GST-Als5 specifically blocks binding of anti-Als5 antibody on Candida cell surface. […] This primary antibody was detected by a secondary antibody that was conjugated with TRITC and detected using flow cytometry as described in the text. […]

[2] = Aggregation/precipitation on concentrating the protein; assay type: physicochemical; conditions: attempts to concentrate protein above ∼0.09 mg/ml
Text: However, we observed bands of Mr ∼270 kDa, for both GST-Als5 and GST-Als5-SS (Figure 1B). This marked difference between the observed molecular weights in SDS-PAGE and the expected molecular weights has been previously attributed to the high content of hydroxyl amino acids in proteins; both Als5 and Als5-SS are rich in serine and threonine residues.
It must be pointed out that a PreScission^TM protease site exists between the fusion tag and the Als5 proteins in the two constructs. However, our attempts to cleave off the fusion tag with the protease met with poor success. The PreScission^TM protease is also available as a GST-tagged enzyme and it is possible that steric factors precluded the interaction of the protease with the cleavage site in our fusion protein. Additionally, our protein yields to begin with were very low (∼0.09 mg/ml) and this too could have affected the efficiency of the cleavage. […] We used similarly expressed and purified GST as the control for all our experiments. Similar studies with GST-tagged proteins, including conformational studies, have been reported by other groups previously (cf.).

B1: GST-Als5: GST fusion of full length Als5 minus the GPI anchor attachment signal sequence, expressed in E. coli (protein)
chain: ITGIFNSIDSLTWSNAGNYAFKGPGYPTWNAVLGWSLDGTSANPGDTFILNMPCVFKFTASQKSVDLTADGVKYATCQFYSGEEFTTFSSLKCTVNNNLRSSIKALGTVTLPIAFNVGGTGSSVDLEDSKCFTAGTNTVTFNDGSKKLSIAVNFEKSTVDQSGYLTTSRFMPSLNKIATLYVAPQCENGYTSGTMGFSTSYGDVAIDCSNVHIGISKGVNDWNHPVTSESFSYTKSCSSFGISITYQNVPAGYRPFIDAYISPSDNNQYQLSYKNDYTCVDDYWQHAPFTLKWTGYKNSDAGSNGIVIVATTRTVTDSTTAVTTLPFNPSVDKTKTIEILQPIPTTTITTSYVGVTTSYSTKTAPIGETATVIVDVPYHTTTTVTSEWTGTITTTTTRTNPTDSIDTVVVQVPLPNPTTTTTQFWSESFTSTTTITNSLKGTDSVIVREPHNPTVTTTEFWSESYATTETITNGPEGTDSVIVREPHNPTVTTTEFWSESYATTETVTNKPEGTDSVIIKEPHNPTVTTTEFWSESYATTETITTGPLGTDSIVIHDPLEESSSTTAIESSDSNISSSAQESSSSVEQSSSIVGLSSSSDIPLSSDMPSSSSTGLTSSESSTVSSYDSDSSSSSELSTFSSSESYSSSISDTTNFWDSSSSDLESTSITWSSSIDAQSSQSVQSVSNSISTSQETTSSSGEESNTSVTDILVSSDASSILNSDISSYYPSSTISLSDDFPHTIAGEPDSRSSSSIASTVEISSDLVSLTSDPTSSFDSSSSLNSDSSSSPFSDESDISASSSFSTLVAPSFSLSSSSSLSLTYPHYVNSTTYHASESESSSVASPSMASESANDDTHTLSESTDTTSSIGTDSSTVTFCRRDNGDGCIVTGMPSSSIDSEQTSDVTTTSSFVASSTPTSAEQSITDNPNIDSSQTSASSSTKSSVSVSDTVVNSISLSETSTLSSDDSTSSDTSISSTTNSDTGNINAGSSHTSTASIKESSIQKTGVMLSSSYLSTKLSSTSDITTELITTELITTELTTIEDNEPNTFTSTPSSHSEIFSSDNSVLSKQVDRESTIKTSPTTDVTTVSSLSVHSTEASTATLGENSFSNVASTPSNIATSLRSTSSSSNHATESSGTVKSEASAEAIPSPPTSTDNRLSYSTEEAKGITYANSGSTNNLITESQVAAPTDSTSVLIENPVVTSTFDDNSSAAVDQPSKTKSIEESIMNPDSTNETNNGFIATLSQAQVPNSLIHSESISTTMAKTTDASINGDSAASNSQPTTLIQQVATSSYNQPLITTYAGSSS
modifications: left off: GST, N-terminal, kept
[1]
  inhibition of anti-Als5 antibody binding to Candida cells (in words): could inhibit the interaction of the primary antibodies to the cell surface in a concentration dependent manner; also recorded: inhibited the binding of anti-Als5 antibody to C.albicans cell surface in a concentration dependent manner
[2]
  aggregation and precipitation on concentrating (in words): aggregating and precipitating out; also recorded: tended to aggregate and precipitate out of solution
